Reference: the Human Domainome abundance scans (Beltran et al. 2025)
± gives the uncertainty stated by the source.

B1: Tudor domain-containing protein 3, residues 554 to 611; numbered along this chain, Q9H7E2 (parent)
chain: KMWKPGDECFALYWEDNKFYRAEVEALHSSGMTAVVKFIDYGNYEEVLLSNIKPIQTE

Variants of: B1
Assay: abundance fitness (aPCA) (normalised: wild type 0, dead -1); higher = more abundant; growth selection in yeast, the domain comes from the species named
Settings: Homo sapiens

Variant | abundance fitness
A34V | -0.078 ± 0.065
A34Q | -0.575 ± 0.27
A34P | -1.04 ± 0.28
A34R | -0.85 ± 0.088
A34T | -0.948 ± 0.17
A34F | -0.919 ± 0.21
A34I | -0.76 ± 0.18
A34C | -0.072 ± 0.091
A34W | -0.882 ± 0.12
A34S | -0.73 ± 0.093
A34L | -0.404 ± 0.074
A34E | -0.976 ± 0.12
A34K | -0.646 ± 0.18
A34G | -0.413 ± 0.054
A34D | -0.931 ± 0.13
A34Y | -0.897 ± 0.29
A34M | -0.358 ± 0.11
A34N | -0.781 ± 0.16
A34H | -0.861 ± 0.23
M32E | 0.009 ± 0.083
M32F | -0.005 ± 0.081
M32A | -0.036 ± 0.068
M32I | -0.24 ± 0.088
M32W | -0.137 ± 0.07

Variant | abundance fitness
M32L | -0.045 ± 0.057
M32N | 0.003 ± 0.091
M32T | 0.046 ± 0.075
M32G | -0.031 ± 0.055
M32R | -0.009 ± 0.055
M32V | -0.054 ± 0.055
M32C | -0.098 ± 0.082
M32S | 0.02 ± 0.065
M32Q | 0.046 ± 0.078
M32K | -0.165 ± 0.091
M32P | -0.266 ± 0.081
M32Y | 0.195 ± 0.12
M32H | 0.086 ± 0.11
M32D | -0.057 ± 0.097
K37G | -0.833 ± 0.065
K37C | -0.612 ± 0.15
K37N | -0.567 ± 0.17
K37W | -0.635 ± 0.085
K37F | -0.218 ± 0.15
K37S | -0.616 ± 0.088
K37Y | -0.098 ± 0.14
K37Q | -0.359 ± 0.093
K37M | -0.741 ± 0.11
K37L | -0.719 ± 0.096

Variant | abundance fitness
K37E | -0.757 ± 0.094
K37H | -0.32 ± 0.14
K37P | -0.948 ± 0.14
K37A | -0.996 ± 0.1
K37I | -0.968 ± 0.25
K37D | -0.74 ± 0.14
K37T | -0.923 ± 0.14
K37R | -0.064 ± 0.058
T33R | -0.088 ± 0.052
T33E | -0.377 ± 0.092
T33Q | -0.287 ± 0.094
T33Y | -0.184 ± 0.087
T33C | -0.14 ± 0.067
T33S | 0.012 ± 0.059
T33M | -0.246 ± 0.11
T33A | -0.121 ± 0.075
T33D | -0.877 ± 0.15
T33P | -1.03 ± 0.14
T33L | -0.331 ± 0.065
T33G | -0.444 ± 0.068
T33W | -0.321 ± 0.071
T33H | -0.126 ± 0.089
T33I | -0.276 ± 0.094
T33V | -0.232 ± 0.078

Variant | abundance fitness
V35Q | 0.058 ± 0.081
V35T | 0.104 ± 0.069
V35M | -0.079 ± 0.083
V35Y | -0.092 ± 0.1
V35S | -0.032 ± 0.071
V35K | 0.104 ± 0.082
V35W | -0.087 ± 0.069
V35D | -0.426 ± 0.12
V35H | -0.403 ± 0.15
V35L | -0.011 ± 0.063
V35E | -0.227 ± 0.087
V35I | -0.16 ± 0.13
V35N | -0.211 ± 0.12
V35R | 0.129 ± 0.054
V35G | -0.384 ± 0.057
V35P | -0.973 ± 0.14
V35F | -0.186 ± 0.1
V35C | -0.162 ± 0.088
V35A | -0.277 ± 0.074
V36K | -0.843 ± 0.17
V36C | -0.584 ± 0.13
V36R | -0.88 ± 0.1
V36I | -0.295 ± 0.089
V36S | -0.913 ± 0.1

Variant | abundance fitness
V36H | -0.838 ± 0.32
V36T | -0.777 ± 0.12
V36D | -0.996 ± 0.15
V36W | -0.833 ± 0.12
V36L | -0.571 ± 0.067
V36G | -0.833 ± 0.076
V36N | -1.11 ± 0.3
V36F | -0.964 ± 0.2
V36A | -0.92 ± 0.097
V36Q | -0.73 ± 0.14
S29F | -0.186 ± 0.1
S29E | -0.008 ± 0.081
S29W | -0.368 ± 0.076
S29G | -0.107 ± 0.057
S29A | 0.114 ± 0.075
S29H | -0.05 ± 0.14
S29I | -0.05 ± 0.097
S29V | 0.118 ± 0.064
S29C | -0.116 ± 0.079
S29L | -0.125 ± 0.06
S29T | -0.012 ± 0.074
S29Y | -0.061 ± 0.092
S29Q | -0.11 ± 0.1
S29D | 0.014 ± 0.097

Variant | abundance fitness
S29P | -0.03 ± 0.088
S29R | -0.133 ± 0.053
S29K | -0.028 ± 0.082
S29N | -0.062 ± 0.12
S29M | -0.009 ± 0.084
G31V | -0.45 ± 0.067
G31D | -0.198 ± 0.083
G31R | -0.033 ± 0.055
G31L | -0.267 ± 0.075
G31Y | -0.269 ± 0.13
G31K | -0.148 ± 0.1
G31F | -0.558 ± 0.12
G31Q | -0.043 ± 0.17
G31A | 0.015 ± 0.076
G31N | -0.057 ± 0.14
G31P | -0.48 ± 0.086
G31C | -0.12 ± 0.069
G31E | -0.092 ± 0.093
G31S | -0.082 ± 0.062
G31W | -0.658 ± 0.099
G31H | -0.099 ± 0.088
G31M | -0.043 ± 0.11
G31T | 0.02 ± 0.09
F38H | -0.94 ± 0.23

Variant | abundance fitness
F38G | -0.845 ± 0.065
F38C | -0.935 ± 0.13
F38E | -0.997 ± 0.13
F38A | -0.878 ± 0.091
F38D | -0.764 ± 0.17
F38I | -0.852 ± 0.26
S30W | -0.462 ± 0.097
S30P | -0.331 ± 0.094
S30I | -0.322 ± 0.12
S30Y | -0.463 ± 0.1
S30M | -0.282 ± 0.098
S30G | -0.132 ± 0.052
S30D | -0.179 ± 0.074
S30T | -0.119 ± 0.071
S30F | -0.435 ± 0.097
S30L | -0.37 ± 0.073
S30K | -0.172 ± 0.094
S30V | -0.501 ± 0.063
S30A | -0.192 ± 0.061
S30Q | -0.254 ± 0.11
S30E | -0.143 ± 0.081
S30C | -0.109 ± 0.089
S30N | -0.04 ± 0.099
